Experimental findings from publication PMC4367279, “Comparisons with Amyloid-β Reveal an Aspartate Residue That Stabilizes Fibrils of the Aortic Amyloid Peptide Medin*” (The Journal of Biological Chemistry, 2015) are described below.

For this assay, the target named is medin D25N, recombinant (human). The experiment in a line: thioflavin T fluorescence (aggregation kinetics); 20 uM medin, 20 uM ThT, 30 C, no agitation, 96-well plate, triplicate; 20 mM sodium phosphate, 150 mM NaCl, pH 7.4; sigmoidal fit, slope 1/tau is the rate of polymerization; self-assembly into ThT-responsive aggregates.

Take medin D25N, recombinant (peptide): the rate of polymerization (ThT fit) was 1.43 h⁻¹.
